For experiment [1], the target named is human CCR8 expressed on transfected cells (human, UniProt P51685 1-355). Put plainly: cell-based or functional assay.
For experiment [2], the target named is CCR8 tagged at the N-terminus with a C-myc epitope tag and at the C-terminus with Renilla luciferase variant 8 (human, UniProt P51685 1-355). Put plainly: cell-based or functional assay.
Experiment [3] concerns the target T1, human CCR3 expressed on 4DE4 cells (human) (UniProt P51677).
T1 sequence: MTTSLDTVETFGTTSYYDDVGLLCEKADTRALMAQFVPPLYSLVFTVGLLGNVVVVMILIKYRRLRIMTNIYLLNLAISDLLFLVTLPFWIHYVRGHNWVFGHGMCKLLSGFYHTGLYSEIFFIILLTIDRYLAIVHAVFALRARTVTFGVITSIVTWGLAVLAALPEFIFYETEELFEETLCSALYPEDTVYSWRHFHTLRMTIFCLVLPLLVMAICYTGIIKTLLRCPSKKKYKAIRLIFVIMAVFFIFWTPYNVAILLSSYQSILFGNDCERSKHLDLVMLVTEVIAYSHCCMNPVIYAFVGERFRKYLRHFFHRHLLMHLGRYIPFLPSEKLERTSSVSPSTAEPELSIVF

Experiment [4] addresses T2, mCCR8 tagged at the N-terminus with a C-myc epitope tag and at the C-terminus with Renilla luciferase variant 8 (mouse) (UniProt P56484).
T2 sequence: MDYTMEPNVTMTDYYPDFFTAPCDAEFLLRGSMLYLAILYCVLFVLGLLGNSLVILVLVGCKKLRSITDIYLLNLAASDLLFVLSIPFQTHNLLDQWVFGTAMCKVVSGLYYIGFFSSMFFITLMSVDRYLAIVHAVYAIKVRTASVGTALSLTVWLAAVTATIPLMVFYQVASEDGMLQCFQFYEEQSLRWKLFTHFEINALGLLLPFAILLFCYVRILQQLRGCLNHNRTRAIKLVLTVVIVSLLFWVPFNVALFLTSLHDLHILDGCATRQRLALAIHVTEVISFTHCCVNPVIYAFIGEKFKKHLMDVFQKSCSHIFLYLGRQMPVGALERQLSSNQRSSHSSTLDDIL

The target of experiment [5] is T3, mouse CCR8 expressed on FlpInCHO cells (mouse) (UniProt P56484).
T3 sequence: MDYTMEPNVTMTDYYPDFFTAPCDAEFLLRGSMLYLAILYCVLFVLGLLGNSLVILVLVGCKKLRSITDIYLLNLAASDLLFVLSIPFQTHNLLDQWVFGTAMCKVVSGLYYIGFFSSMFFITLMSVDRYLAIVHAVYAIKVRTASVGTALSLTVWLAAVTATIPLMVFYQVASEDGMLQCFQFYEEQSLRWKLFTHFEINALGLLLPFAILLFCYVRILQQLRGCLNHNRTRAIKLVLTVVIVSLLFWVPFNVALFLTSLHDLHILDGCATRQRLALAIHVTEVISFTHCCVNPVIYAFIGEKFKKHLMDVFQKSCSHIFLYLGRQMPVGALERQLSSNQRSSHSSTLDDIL

Chain of human CCR8 expressed on transfected cells (P51685 whole entry): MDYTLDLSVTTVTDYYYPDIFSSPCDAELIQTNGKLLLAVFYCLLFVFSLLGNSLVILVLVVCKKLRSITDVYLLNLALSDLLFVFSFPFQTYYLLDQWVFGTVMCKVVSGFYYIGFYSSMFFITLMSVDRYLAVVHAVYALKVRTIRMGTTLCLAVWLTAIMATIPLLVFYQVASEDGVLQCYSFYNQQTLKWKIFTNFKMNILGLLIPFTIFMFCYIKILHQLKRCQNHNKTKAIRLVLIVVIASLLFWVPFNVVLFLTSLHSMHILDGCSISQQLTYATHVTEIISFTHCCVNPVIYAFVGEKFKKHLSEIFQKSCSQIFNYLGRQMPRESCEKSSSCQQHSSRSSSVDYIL
Chain of CCR8 tagged at the N-terminus with a C-myc epitope tag and at the C-terminus with Renilla luciferase variant 8 (P51685 whole entry, change not shown): as the sequence (P51685 whole entry) above

B1: CCL1 (ligand, human, UniProt P22362 24-96, looked up)
chain: KSMQVPFSRCCFSFAEQEIPLRAILCYRNTSSICSNEGLIFKLKRGKEACALDTVGWVQRHRKMLRHCPSKRK
For B1, in experiment [1], the “G protein activation (Gαi2; BRET of Gβγ with a GRK fragment) in FlpIn CHO cells stably expressing CCR8; EC50” value worked out at 46 nM and the “inhibition of forskolin-stimulated cAMP synthesis (CAMYEL biosensor) in FlpIn CHO cells stably expressing CCR8; EC50” value amounted to 26 nM. Besides, in experiment [2], the “β-arrestin2 recruitment to CCR8 (BRET) in FlpIn CHO cells; EC50 of CCL1” value is 21 nM.

B2: CCL18(1–69) (ligand)
chain: AQVGTNKELCCLVYTSWQIPQKFIVDYSETSPQCPKPGVILLTKRGRQICADPNKKWVQKYISDLKLNA
Take B2: in experiment [3], the inhibition by CCL18 of chemotaxis of 4DE4-CCR3 cells to 1 nM CCL11 (blocks CCL11 with CCR3); 50% inhibitory concentration was less than 50 nM.

B3: murine CCL1 (ligand)
chain: KSMLTVSNSCCLNTLKKELPLKFIQCYRKMGSSCPDPPAVVFRLNKGRESCASTNKTWVQNHLKKVNPC
In experiment [4], B3 displayed a β-arrestin2 recruitment to mCCR8 (BRET) in FlpIn CHO cells; EC50 of mCCL1 of 24 nM. In experiment [5], this molecule registered a G protein activation in FlpIn CHO cells stably expressing mCCR8; EC50 of 11 nM and a cAMP inhibition in FlpIn CHO cells stably expressing mCCR8; EC50 of 30 nM.

The record behind these values is article PMC11389940, “The chemokine receptor CCR8 is not a high-affinity receptor for the human chemokine CCL18” (PLOS ONE, 2024).
